# “Also recorded” adds a separate entry of the source.
# B1: DBP89: designed DNA-binding protein, SEQ ID NO: 48, DNA target A (protein)
# chain: SPAAFDKLTARELAVARLVAQGLPNREIAAALHISPRAVEAHLRKIYRKLGIRRRRELAALLA
# B2: DBP62: designed DNA-binding protein, SEQ ID NO: 36, DNA target F (protein)
# chain: KEELEKLLKIIESLPKKFREVIILKFVEGLSYTEIAERLGVSRGAVYSRLRSALKKIEEALKK
# B3: DBP60: designed DNA-binding protein, SEQ ID NO: 34, DNA target E (protein)
# chain: DIEKIAKAVKELREELGLTQAEFAKKIGIGQGTLSRFEKGGVLSPKTMERLLKALEKEFGFDVKK
# B4: DBP47: designed DNA-binding protein, SEQ ID NO: 21, DNA target D (protein)
# chain: MTPEERERAKEIGREIRELRRERGLTQRELADLLGVSRSTVSDIESGRRLPSEELLRRIREILGV
# B5: DBP43: designed DNA-binding protein, SEQ ID NO: 17, DNA target G (protein)
# chain: MEELKKLLESGDPKLQGEAVKKIREKLGLTQREFGKKIGVGQAKVSRIEAGKIKLTPELKEKILE
# B6: DBP56: designed DNA-binding protein, SEQ ID NO: 30, DNA target E (protein)
# chain: PPPTPFEVAGARIKEERAKLGLTQAELAKVAGVGQATVSRIEKGRKCSWELIEKIFEALKKV
# B7: DBP5: designed DNA-binding protein, SEQ ID NO: 3, DNA target A (protein)
# chain: GFGKAVKAKRAELGLTQAEFAERAGLSRRTIIRIEQGKVKATSTTAEKIAAALGTTVQELEQA
# What was measured:
# 13 unique dsDNA targets = assay: All-by-all yeast surface display screen of DBP design hits; assay type: binding; details: for Number of the 13 tested DNA target sequences preferentially bound: including designed target sequence; for Binding specificity versus design models: all-by-all screen with Rosetta-predicted motifs; for Target sequence preference: 13 unique dsDNA targets
# Protocol: And an all-by-all screen of DBP design hits to 13 unique dsDNA targets was performed (FIG. 4, table 2). […] To try to understand these observed binding preferences, each tested DNA sequence was threaded onto each design complex model at all possible base pair alignments, the alternative complex models were relaxed with Rosetta™, and the model with the most favorable Rosetta™ ΔΔG was selected.
# Saccharomyces cerevisiae EBY100 strain cultures were grown in C-Trp-Ura medium supplemented with 2% (w/v) glucose. For induction of expression, yeast cells were centrifuged at 6,000 g for 1 min and resuspended in SGCAA medium supplemented with 0.2% (w/v) glucose at the cell density of 1×10^7 cells per ml and induced at 30° C. for 16-24 h. Cells were washed with PBSF (PBS with 1% (w/v) BSA) and labeled with biotinylated targets using two labeling methods: with-avidity and without-avidity labeling. For the with-avidity method, the cells were incubated with biotinylated target, together with anti-c-Myc fluorescein isothiocyanate (FITC, Miltenyi Biotech) and streptavidin-phycoerythrin (SAPE, ThermoFisher). The concentration of SAPE in the with-avidity method was used at one-quarter of the concentration of the biotinylated targets. For the without-avidity method, the cells were first incubated with biotinylated targets, washed and secondarily labeled with SAPE and FITC.
# (§1) For yeast display characterization of individual designs, including competition assays, DNA sequences encoding the proteins of interest were purchased as Integrated DNA Technologies (IDT) E-Blocks™, transformed into yeast cells, and incubated in 96 well culture plates. Labeling with biotinylated dsDNA targets and SAPE/FITC was performed in a 96 well plate format. For yeast display competition assays, labeling was performed without avidity using 1 μM biotinylated dsDNA duplex oligos and an excess of 8 μM non-biotinylated competitor dsDNA duplex oligos. […] Flow cytometry analysis was performed with an Attune NxT™ flow cytometer with autosampler. Flow cytometry data analysis was performed using custom python code and the CytoFlow™ python package. For each individual sample, gating of the expression population was performed using the CytoFlow™ Gaussian Mixture Model and the ratio of SAPE channel intensity to FITC channel intensity (binding signal/expression signal) was calculated for all gated expression events of the sample.
# [1] = tested on: biotinylated target dsDNA with non-biotinylated competitor dsDNA; assay: Yeast display competition assay with base-substituted competitor dsDNA; assay type: binding; details: all possible base mutations at each position of the competitor oligo
# Description: We used a yeast display competition assay to characterize the DNA binding site specificity of a subset of the designs (FIG. 1A-E, left; FIG. 5). Addition of non-biotinylated competitor dsDNA to biotinylated target sequence reduced binding signal by flow cytometry (FIG. 1A-E, middle). […] For example, in DBP6 (FIG. 1A) R31 and R36 in the design model form bidentate hydrogen bonds with the guanines of base pair positions G12 and C9, respectively, while T32 forms a hydrogen bond with C10.
# as §1
# [2] = tested on: synTF-specific cis-regulatory elements (CRE) in HEK293T cells; assay: Transcriptional activation by synTFs in HEK293T cells (ENGRAM); assay type: cell-based; details: DBP fused to GCN4 dimerization domain and VP64; HEK293T cells expressing PEmax; dependent on spacing between motifs
# Description: Next, we investigated whether the DBPs can be used as activators in mammalian cells. A set of synthetic transcription factors (synTFs) were created by fusing the GCN4 dimerization domain and the VP64 activation domain to the C-termini of DBPs 9, 35opt, 48, 57, and 60 which recognize 3 unique motifs. The dimerization domain allows the DBPs to recognize a palindromic target sequence consisting of two binding motifs, improving the binding affinity to the DNA sequence (FIG. 2C). We created synTF specific cis-regulatory elements (CRE) with 4 repeats spaced by 6 bp to drive the expression of downstream genes, and used the ENGRAM (43) recording technology to measure the activity of the synTFs in HEK293 cells. In ENGRAM, each CRE drives the expression of a uniquely barcoded pegRNA, which upon expression is recorded into the DNA TAPE at the HEK3 locus by prime-editor (PEmax); the activity of individual synTFs can be measured as the abundance of the barcode on the DNA TAPE (FIG. 2C). We first tested 3 different spacings-1 bp, 3 bp, and 5 bp-between the palindromic binding motifs to maximize the recorder activity. 3 synTF specific recorders and 1 TCF-LEF-recorder (negative control) were mixed with ratio 2:2:2:1 and co-transfected with synTFs into the HEK293T cells expressing PEmax. Cells were harvested and analyzed 2 days post-transfection. After analyzing the barcode abundance on the DNA TAPE, we observed 3-5 fold activation for DBP9/DBP35 and DBP57/DBP60 (FIG. 2D).
# HEK293T cells expressing PEmax™ were cultured in DMEM High glucose (GIBCO), supplemented with 10% Fetal Bovine Serum (Rocky Mountain Biologicals) and 1% penicillin-streptomycin (GIBCO). Cells were grown with 5% CO2 at 37° C. 1×10^5 cells were seeded on a 48-well plate a day before transfection. Enhancer plasmid and binder plasmid were mixed with a ratio of 2:1. Enhancer variants and background control were mixed with a ratio of 2:2:2:1. A total of 300 ng of plasmid were transfected using Lipofectamine™ 3000 (ThermoFisher, L3000015), following the manufacturer's protocol. Cells were harvested 2 days post-transfection. Genomic DNA was extracted based on the protocol described earlier (43). Briefly, cells were lysed using freshly prepared lysis buffer (10 mM Tris-HCl, pH 7.5; 0.05% SDS; 25 µg/ml protease (ThermoFisher)) for each well. The genomic DNA mixture was incubated at 50° C. for 1 h, followed by an 80° C. enzyme inactivation step for 30 min. The DNA TAPE was amplified from the genomic DNA directly for next generation sequencing. Recorded information was extracted via custom analysis code. Each enhancer has a unique barcode representing its activity. Transcription activation was measured as the fold change in the barcode abundance relative to the negative control barcode. All measurements were performed in triplicates.
molecule,measurement,setting,value
"DBP51: designed DNA-binding protein, SEQ ID NO: 25, DNA target E (MEADPAVVFGRRLRAARRAKGLTQAELAERAGLGQGTISRYEKGRTLPSPEQVEKLLAAL)",Number of the 13 tested DNA target sequences preferentially bound,13 unique dsDNA targets; 1 μM dsDNA with avidity,less than 3
same,Binding specificity versus design models,13 unique dsDNA targets,bound with specificity closely consistent with the design models
"DBP69: designed DNA-binding protein, SEQ ID NO: 38, DNA target C (MKEEGRKLKELRERLGLTQAELAEALGLGQSTISRLERGRKEISPEVWEKALALLE)",Number of the 13 tested DNA target sequences preferentially bound,13 unique dsDNA targets; 1 μM dsDNA with avidity,less than 3
same,Binding specificity versus design models,13 unique dsDNA targets,bound with specificity closely consistent with the design models
"DBP23: designed DNA-binding protein, SEQ ID NO: 9, DNA target B (PLAELGKAIKEARKRKGLTQAEVAKAAGVSRATVQRLELGKAKSIRPDKLRAILEVVGL)",Target sequence preference,13 unique dsDNA targets,bound to most of the targets
"DBP52: designed DNA-binding protein, SEQ ID NO: 26, DNA target E (RPLTPAEVFGRELRRLRRAAGLTQAELAERAGIGQGTVSRYEHGRRLPSPEEQERLLAAL)",Target sequence preference,13 unique dsDNA targets,strong preference for 2 or 3 of the sequence targets
"DBP83: designed DNA-binding protein, SEQ ID NO: 43, DNA target A (PREREILRLLAEGKNAWEIAQILNISVRTVRNHLRNAMRKLGARNRVQAVARALRLG)",Number of the 13 tested DNA target sequences preferentially bound,13 unique dsDNA targets; 1 μM dsDNA with avidity,less than 3
"DBP90: designed DNA-binding protein, SEQ ID NO: 49, DNA target A (NKYQLSLLESAFQSNRYPDISQRATLASQTGLPERRIKIWFQNRRQRWKRKK)",Binding to initial design target,"13 unique dsDNA targets; yeast surface display, 1 μM dsDNA with avidity",bound weakly
same,Binding to alternate target sequence,"13 unique dsDNA targets; yeast surface display, 1 μM dsDNA with avidity, alternate target H (DBP90), D (DBP48), C (DBP57)",strongly
"DBP9: designed DNA-binding protein, SEQ ID NO: 6, DNA target B (DWERRCAYARRARKELGLTQAELGELAGVSRTTVSRIERGKPDVSEASVEAVLAVL)",DNA binding site specificity,[1],specificity for a 6 nucleotide stretch (TGCACA) with peripheral dependence on T8 and A13
same,Number of the 13 tested DNA target sequences preferentially bound,13 unique dsDNA targets; 1 μM dsDNA with avidity,less than 3
same,Target sequence preference,13 unique dsDNA targets,strong preference for only their designed target sequence
same,Binding specificity versus design models,13 unique dsDNA targets,bound with specificity closely consistent with the design models
same,Fold activation of synTFs measured as normalized barcode abundance in the DNA TAPE,[2],3-5 fold
"DBP44: designed DNA-binding protein, SEQ ID NO: 18, DNA target G (KEERVLAALEAHPWSTLAEIAELTGLSRSTVSRILSRLRKEGKCDSRREGRKVRYWLVRR)",Target sequence preference,13 unique dsDNA targets,bound to most of the targets
B1,Target sequence preference,13 unique dsDNA targets,bound to most of the targets
B2,DNA binding site specificity,[1],dependent on bases peripheral to the binding site (e.g. C11); also recorded: exhibited specificity for its target site
same,Number of the 13 tested DNA target sequences preferentially bound,13 unique dsDNA targets; 1 μM dsDNA with avidity,less than 3
same,Target sequence preference,13 unique dsDNA targets,strong preference for only their designed target sequence
same,Binding specificity versus design models,13 unique dsDNA targets,bound with specificity closely consistent with the design models
B3,Number of the 13 tested DNA target sequences preferentially bound,13 unique dsDNA targets; 1 μM dsDNA with avidity,less than 3
same,Target sequence preference,13 unique dsDNA targets,strong preference for 2 or 3 of the sequence targets
same,Binding specificity versus design models,13 unique dsDNA targets,bound with specificity closely consistent with the design models
same,Fold activation of synTFs measured as normalized barcode abundance in the DNA TAPE,[2],3-5 fold
B4,Number of the 13 tested DNA target sequences preferentially bound,13 unique dsDNA targets; 1 μM dsDNA with avidity,less than 3
same,Binding specificity versus design models,13 unique dsDNA targets,bound with specificity closely consistent with the design models
B5,Binding specificity versus design models,13 unique dsDNA targets,bound with specificity closely consistent with the design models
B6,DNA binding site specificity,[1],specificities consistent with the designed sidechain-base interactions
same,Number of the 13 tested DNA target sequences preferentially bound,13 unique dsDNA targets; 1 μM dsDNA with avidity,less than 3
same,Binding specificity versus design models,13 unique dsDNA targets,bound with specificity closely consistent with the design models
B7,Binding specificity versus design models,13 unique dsDNA targets,bound with specificity closely consistent with the design models
